The target of the test is recombinant human cardiac troponin I tagged with GST (human, UniProt P19429 1-210). In words: ELISA.
Chain of recombinant human cardiac troponin I tagged with GST (P19429 whole entry): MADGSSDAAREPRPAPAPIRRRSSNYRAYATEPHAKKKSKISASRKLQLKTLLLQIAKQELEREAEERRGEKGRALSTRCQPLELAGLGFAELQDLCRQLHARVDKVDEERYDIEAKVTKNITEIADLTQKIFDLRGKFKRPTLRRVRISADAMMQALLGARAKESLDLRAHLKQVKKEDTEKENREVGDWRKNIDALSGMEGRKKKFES

B1: P888, ten amino acid peptide corresponding to ATP synthase subunit d residues 2-11 (peptide)
peptide: AGRKLALKTI
With B1, the binding result is reported as “binds”.

The values above are taken from article doi:10.1101/2023.02.03.526715 (bioRxiv, 2023).
